T1: calcitonin (Homo sapiens, UniProt P01258)
T1 sequence (P01258 85-116 limits assumed): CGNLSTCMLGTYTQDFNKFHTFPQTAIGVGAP

T2: amylin (Homo sapiens, UniProt P10997)
T2 sequence (P10997 34-70 limits assumed): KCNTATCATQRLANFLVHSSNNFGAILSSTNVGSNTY

T3: adrenomedullin (Homo sapiens, UniProt P35318)
T3 sequence (P35318 95-146 limits assumed): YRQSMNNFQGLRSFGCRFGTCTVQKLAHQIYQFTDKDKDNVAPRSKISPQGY

B1: G2: anti-rat CGRP mouse monoclonal antibody (Wong H C et al. Hybridoma 1993); variable regions SEQ ID Nos. 19 and 20; murine tool (antibody, V domains shown)
VH: EVQLQQSGPELVKPGASVKMSCKASGYTFTSSVMHWVKQKPGQGLEWIGYINPYNDGTKYNEKFKGKATLTSDKSSSTAYMELSSLTSEDSAVYYCAKGGNDGYWGQGTTLTVSS
VL: EIVLTQSPTTMAASPGEKITITCSASSSISSIYLHWYQQKPGFSPKVLIYRASNLASGVPARFSGSGSGTSYSLTIGTMEAEDVATYYCQQGSTIPFTFGSGTKLEIK
modifications: Synthetic polypeptide, Antibody G2 heavy chain variable region; Synthetic polypeptide, Antibody G2 light chain variable region
notes: anti-rat CGRP mouse monoclonal antibody (Wong H C et al. Hybridoma 1993); murine tool

Experiments:
CGRP = assay: Neurogenic skin flare rat model (saphenous nerve stimulation, laser Doppler blood flow); format: in vivo; conditions: for start of significant decrease in blood flow response post dose: intravenous; for development of neurogenic flare in vivo: rat
Description: Using a neurogenic skin flare rat model the efficacy of G1 was tested for its ability to block CGRP effect in vivo. The saphenous nerve in the rat is electrically stimulated causing CGRP release from nerve endings and leading to vasodilation, the resulting changes in blood flow can be measured using laser Dopler methods.
Changes in blood flow parameters were expressed as the area under the curve (AUC, change in arbitrary Doppler flux units multiplied by time). CGRP receptor antagonist CGRP8-37 (400 nmol/kg, i.v.) was used as a positive control to validate the specificity of the model (data not shown). To determine the effect of G1 prior to dosing for each animal, the baseline blood flow response to stimulation was established with two saphenous nerve stimulations each 30 minutes apart. Rats were treated with G1 after the blood flow response of the second stimulation had returned to baseline levels (approximately 10 minutes post stimulation) and an additional four stimulations at 30 minute intervals were performed.

rats = assay: Indicators of physical or psychological dependence, long term observation of dosed animals; conditions: rat, in vivo
[1] = biological target: T4, 25-37 human α-CGRP fragment (Homo sapiens, UniProt P06881); assay: Alanine scan of C-terminal CGRP fragment (CGRP 25-37) by Biacore, epitope identification; format: binding; conditions: 25° C., Biacore 3000
T4 construct: (CGRP 25-37)
Description: Interaction analysis was conducted at 25° C. on a Biacore 3000™ system equipped with streptavidin-coated (SA) sensor chips (Biacore AB, Uppsala, Sweden) using a standard Biacore running buffer (HBS-P). […] Each amino acid between position 27-37 was then mutated individually to alanine and expressed the fold loss in affinity compared to the wild-type fragment. N-biotinylated fragments were captured on individual flow cells at low levels (typically 100 response units) to provide the reaction surfaces, while an unmodified flow cell served as a reference channel. Purified Fab fragments of antibody G1 were generated. Fab fragments were titrated over the chip using 1 μM as the top concentration of a two-fold dilution series. Association and dissociation phases were monitored at 100 μl/min for 1 minute and 5 minutes respectively. Surfaces were regenerated with a mixture of 35% ethanol+25 mM NaOH+0.5M NaCl.

[2] = system: CGRP1-receptor in SK-N-MC cells; assay: Binding assay: blocking human α-CGRP from binding to the CGRP1-receptor in SK-N-MC cells; conditions: FIG. 4
human CGRP = assay: Solution competition by Biacore (specificity); format: binding; conditions: pre-incubated with human CGRP
From the text: (§1) We determined the specificity of antibody G1 to human or rat CGRP by using the Biacore chip to “probe” the free concentration of a premixed complex of mAb+peptide.

calcitonin = biological target: T1, calcitonin; assay: Solution competition by Biacore (specificity); format: binding; conditions: pre-incubated with an excess of calcitonin
From the text: as §1

amylin = biological target: T2, amylin; assay: Solution competition by Biacore (specificity); format: binding; conditions: pre-incubated with an excess of amylin
From the text: as §1

adrenomedullin = biological target: T3, adrenomedullin; assay: Solution competition by Biacore (specificity); format: binding; conditions: pre-incubated with an excess of adrenomedullin
From the text: as §1

rat CGRP = assay: Solution competition by Biacore (specificity); format: binding; conditions: pre-incubated with rat CGRP
From the text: as §1

MRMT-1 injected rats [3] = assay: Rota rod test for motor impairment in the bone cancer pain model; format: in vivo, rat; conditions: MRMT-1 injected rats treated at day 9 post surgery
From the text: A further end point tested in the bone cancer pain model was ambulation (by rotarod). The test is to obtain a measurement of locomotor impairment comparing antibody treated with control animals, each subjected to the same test under the same conditions. The rota rod test consists of 4 rotateable drums divided by flanges with a motor-driven drum accelerated (Ugo Basile, Comerio, VA, Italy). For a given trial, a rat is placed on the rotating rod and the rotation speed is accelerated from 4 to 16 rpm in 2 min. The time of maximal performance is typically set at 120 sec. Each animal generally receives three trials per day, at 1 hr intervals, for several consecutive days post-surgery. The latency to fall off the rod is represented as mean of the three trials.

MRMT-1 injected rats [4] = assay: Bone cancer pain model (MRMT-1), mechanical hypersensitivity to von Frey stimuli; format: in vivo, rat; conditions: IV 10 mg/kg at day 9
Description: Tumour cells used are syngeneic MRMT-1 rat mammary gland carcinoma cells donated from the Novartis Institute (London). The cells are cultured in RPMI 1640 (Gibco) with 10% foetal bovine serum (FCS), 1% L-glutamine 2% penicillin/streptomycin (Gibco). Two brief washes are carried out with 0.1% w/v trypsin to release those cells which adhere to the flask, and then quenched with an equal volume of 10% FCS, followed by centrifugation of the solution for 3 minutes at 1200 rpm. The pellet is washed and resuspended in Hanks medium, and the concentration of cells calculated using a Haemocytometer, with trypan blue staining to determine the number of dead MRMT-1 cells. The final concentration of 3×10^3 cells was then obtained by diluting the solution according to the number of cells seen. The final solution was kept on ice until time of injection.
Male Sprague-Dawley rats weighing close to 170 g at time of surgery were used to generate the cancer model. Anaesthesia was induced in the rats using halothane or isoflurane (1.5-2%) 66% N2O and 33% O2, the leg was shaved over the appropriate area and disinfected with chlorhexidine (Animalcare Ltd, UK.). A small incision in order to expose the anterior-medial surface of the distal end of the tibia was made. A hole was bored in the periosteum using a 0.7 mm dental drill, through which a 2 cm polythene tubing was fed 1 cm into the intra-medullar cavity of the tibia. Using a Hamilton syringe the pre-prepared 10 μl of 3×10^3 MRMT-1 cells were injected through the tubing into the cavity. The tubing was then removed and the hole plugged using bone restorative material (IRM, Dentsply USA). The wound was then irrigated with 0.9% saline and closed with a metal clip. The sham animals were operated upon using the same procedure but injected with 10 μl of Hank's solution alone. The animals were placed in a thermoregulated recovery box until such time that they were able to be placed back in their housing cages.
Testing behaviour towards mechanical stimuli uses von Frey filaments (North Coast Medical Inc., USA) to the plantar surface of both the ipsilateral and contralateral hindpaw. The rats were placed in a Perspex cubicle with a mesh floor and allowed to acclimatise for 10 minutes. Each von Frey was applied 10 times to each hindpaw alternating between the ipsilateral and contralateral, for duration of 2-3 seconds each time. […] A nocifensive response (a lift) is defined as a brisk withdrawal of the hindpaw and the number of lifts for each paw at each von Frey are recorded (maximum of 10) and expressed as a percentage response. An assessment of the efficacy of rodent anti-CGRP antibody G2 in attenuating hypersensitivity to a wide variety of static mechanical, cooling and integrated stimuli was carried out as well as the background basal pain behaviours in this validated model of cancer induced bone pain. The responses measured are attenuated by standard analgesic treatments such as morphine and gabapentin. All measures were made by the same scientist in a blind fashion—blinded to the identity of the compound/control and to the treatment of the animal.
G2-was given IV at 10 mg/kg at day 9 and rats were tested at 2 hrs and then on days 10, 11, 12 and then 14-18 days post treatment (FIG. 1).

affinity of N-biotinylated 25-37 human α-CGRP fragment compared with full-length N-biotinylated human α-CGRP [1]	complex formation with peptide (calcitonin)	complex formation with peptide (amylin)	complex formation with peptide (adrenomedullin)	Molecule	start of significant decrease in blood flow response post dose (CGRP; 1 mg/kg)	start of significant decrease in blood flow response post dose (CGRP; 10 mg/kg)	inhibits neurogenic flare in the skin starting from, post-treatment (CGRP; FIG. 9, intravenous administration)	development of neurogenic flare in vivo (CGRP)	CNS penetration (rats)	inhibition of binding of α-CGRP to the CGRP1 receptor [2]	Biacore response after pre-incubation with peptide (human CGRP)	Biacore response after pre-incubation with peptide (rat CGRP)	latency to fall from the rotarod during forced ambulation vs vehicle group (MRMT-1 injected rats [3])	hypersensitivity to von Frey 15 g vs vehicle treated group (MRMT-1 injected rats [4]; 2 and 3 days after drug administration)	hypersensitivity to von Frey 15 g vs vehicle treated group (MRMT-1 injected rats [4]; 2 hours post-injection)	hypersensitivity to von Frey 15 g vs vehicle treated group (MRMT-1 injected rats [4]; 6 days after G2 administration)	Withdrawal frequencies to von Frey 8 g vs vehicle treated group (MRMT-1 injected rats [4]; day 14 (day 5 post-G2 injection))	Withdrawal frequencies to von Frey 8 g vs vehicle treated group (MRMT-1 injected rats [4]; days 11 and 12 (days 2 and 3 after injection))	Withdrawal frequencies to von Frey 8 g (MRMT-1 injected rats [4]; two hours after injection)
same affinity	did not form a complex	did not form a complex	did not form a complex	G1: humanized IgG2Δa monoclonal anti-CGRP antagonist antibody from expression vectors ATCC PTA-6867 and PTA-6866; variable regions SEQ ID Nos. 1 and 2	120 min	90 min	90 min	prevent the development of neurogenic flare	Neither antibody G1 nor antibody G2 demonstrate CNS penetration	inhibits the binding	fully blocked	fully blocked							
				B1				prevent the development of neurogenic flare	Neither antibody G1 nor antibody G2 demonstrate CNS penetration				No differences were found	significance seen	reduction in hypersensitivity	reductions were lost	no discernible difference	significantly reduced	reduced
